Reference: the Immune Epitope Database (IEDB)

Target: HLA-A*02:01
Experiment: IEDB peptide-MHC binding, purified MHC/competitive/radioactivity; ≥ and ≤ were set here for values at or beyond the usual limits of such assays
Details: source organism: Toxoplasma gondii GT1

Sequence | IC50
ALAALAPSLEV | 1000 nM
VMSELEFYL | 100 nM
YLSPIASPLL | 100 nM
GLAETEVPV | 500 nM
LLSDLSVRL | 500 nM
ALDINLPNV | 500 nM
MLYAGAPTTV | 100 nM
YLFKEGVIVV | 500 nM
FVLELEPEWTV | 10 nM
HLMDEAVEV | 500 nM
